We go through two molecules from US20200325218A1 (Novartis, published 2020).

The target in assay [1] is T1, recombinant human TSLP (human, UniProt Q969D9 29-159). Put plainly: cell-based or functional assay.
In assay [2] the target is naturally-secreted human TSLP (human, UniProt Q969D9 29-159). Put plainly: cell-based or functional assay.
In assay [3] the target is T2, recombinant cynomolgus monkey TSLP (cynomolgus monkey, UniProt Q969D9 29-159 (human entry), limits assumed).
T2 chain: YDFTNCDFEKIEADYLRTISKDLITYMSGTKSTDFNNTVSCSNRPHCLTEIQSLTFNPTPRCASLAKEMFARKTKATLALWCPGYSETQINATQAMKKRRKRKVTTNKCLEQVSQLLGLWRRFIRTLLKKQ
Put plainly: cell-based or functional assay.

Assay [4] concerns the target T1, recombinant human TSLP. Put plainly: solution equilibrium titration (SET), MSD electrochemiluminescence.
Description: (§1) The Fab was incubated at a constant concentration with serial dilutions of the respective antigens. The binding affinity was extracted from a competition curve which was generated by plotting the read-out of the concentration of unbound antibody against the applied antigen concentration.
(§2) A 384-well MSD array MTP was coated o/n at 4° C. with 30 μl/well of hsTSLP (produced in E. coli) diluted in PBS at 5 μg/ml, then washed three times with 70 μl/well of wash buffer and blocked with 50 μl/well of blocking buffer for 1 h at RT on a shaker. After washing, a volume of 30 μl/well of the equilibrated antigen-Fab mix was transferred from the polypropylene MTP to the coated MSD plate and incubated for 20 min at RT.
For a further assay, the target named is T3, recombinant mouse TSLP (mouse, UniProt Q9JIE6 20-140).
T3 construct: Bought from R&D Systems (MW 15 kDa); also called mTSLP; murine TSLP
T3 sequence: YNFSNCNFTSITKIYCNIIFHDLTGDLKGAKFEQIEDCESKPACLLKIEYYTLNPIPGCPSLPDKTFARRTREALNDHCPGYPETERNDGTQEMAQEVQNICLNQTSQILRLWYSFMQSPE
Put plainly: Biacore SPR, Fab1 captured on a human Fab binder CM5 chip, TSLP injected. On the technique in general: SPR reads the build-up and loss of mass on a sensor chip optically.

For the next assay, the target named is T4, human TSLP (HEK) (human, UniProt Q969D9 29-159).
T4 construct: also called human TSLP (produced in HEK cells)
Put plainly: solution equilibrium titration (SET), antigen titrated in solution, free Fab read on an E. coli hsTSLP-coated MSD plate, mean of 3 experiments ± SD.

Assay [5] deals with T2, recombinant cynomolgus monkey TSLP. The description is as above.
Description: as §1, §2
Assay [6] has as its target T5, His6-PreSc-TSLP (recombinant human TSLP used in crystallography) (human).
T5 construct: also called TSLP (chain T)
Put plainly: complex purified by size-exclusion chromatography and solved by X-ray crystallography. A general note: SEC sorts molecules by how far they enter the pores of the column.
Description: The peak fraction was concentrated to 9.2 mg/ml by ultrafiltration and submitted to crystallization screening.

One may read the Kd as the equilibrium constant for the complex coming apart.

T5 sequence (chain, as listed by the source limits assumed): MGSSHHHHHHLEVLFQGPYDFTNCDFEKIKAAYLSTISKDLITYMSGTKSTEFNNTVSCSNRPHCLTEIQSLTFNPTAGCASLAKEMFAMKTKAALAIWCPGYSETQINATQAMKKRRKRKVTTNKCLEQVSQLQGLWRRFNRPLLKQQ
Description for human TSLP (HEK): as §1, §2
Description for recombinant mouse TSLP: Human Fab binder was immobilized on all four flow cells of a CM5 chip using a Human Fab Capture kit following manufacturer's instructions. A contact time of 360 seconds at a flow rate of 10 uL/min was specified. The temperature of the sample compartment was 10° C. and analysis temperature was 25° C.; prior to immobilization, the CM5 chip was primed with HBS-EP+ and normalized with BIAnormalizing solution. 375 uL of 20 ug/mL human Fab binder was prepared by combining 15 uL 0.5 mg/mL stock with 360 uL pH5 immobilization buffer (both provided in Human Fab Capture kit).
The temperature of the sample compartment was 10° C. and analysis temperature was 25° C. […] Regeneration of the Fab binder surface was achieved after each cycle by injecting 10 mM glycine-HCl, pH 2.0 for 60 s at 10 uL/min, followed by an extra wash with HBS-EP+ buffer. The temperature of the sample compartment was 10° C. and analysis temperature was 25° C.

B1: anti-TSLP Fab1 (Fab, V domains shown)
VH: EVQLVESGGGLVKPGGSLRLSCAASGFTFSDYWMHWVRQAPGKGLEWVGHIKSKTDAGTTDYAAPVKGRFTISRDDSKNTLYLQMNSLKTEDTAVYYCAREIYYYAFDSWGQGTLVTVSS
VL: SYELTQPLSVSVALGQTARITCSGDNIGSKYVHWYQQKPGQAPVLVIYGDNERPSGIPERFSGSNSGNTATLTISRAQAGDEADYYCQAADWVDFYVFGGGTKLTVLG
notes: also called anti-human TSLP Fab1; Fab fragment of MOR014824 (Mab1)
For the molecule B1, in the assay with recombinant human TSLP [1], the “IC50, TSLP-induced TARC secretion from human PBMC” value was 0.0203 nM; the “IC50, luciferase reporter gene assay (Ba/F3 cells with hTSLPR, hIL7Rα and Stat5-luciferase)” value (“IC50, luciferase reporter gene assay” for short) is 0.0154 nM; the “mean IC50 (n=3), TSLP-induced TARC secretion from human PBMC” value came out at 0.0197 nM; the “mean IC50 (n=3), luciferase reporter gene assay” value was found to be 0.0153 nM. Besides, the “IC50, luciferase reporter gene assay” value in assay [2] was found to be 0.0171 nM. Moreover, in assay [3], the “IC50, TSLP-induced MDC secretion from cyno PBMC” value was determined as 0.0555 nM; the “IC50, TSLP-induced TARC secretion from human PBMC” value came out at 0.0113 nM; the “IC50, luciferase reporter gene assay” value came out at 0.0108 nM; the “mean IC50 (n=3), TSLP-induced MDC secretion from cyno PBMC” value was 0.0251 nM. For the same molecule, in assay [3], the “mean IC50 (n=3), TSLP-induced TARC secretion from human PBMC” value is 0.0111 nM and the “mean IC50 (n=3), luciferase reporter gene assay” value was 0.0095 nM. The Kd in the assay with recombinant human TSLP [4] was found to be 0.006 nM. Besides, the binding result with recombinant mouse TSLP is “no binding (tested: 10 nM highest antigen concentration)”. The molecule also registered a Kd with human TSLP (HEK) of 0.005 nM. Also, the Kd in assay [5] was 0.0014 nM.

B2: anti-TSLP Fab1 generated by papain digestion of anti-TSLP mAb1 (crystallography sample) (Fab, V domains shown)
VH: B1 VH
VL: B1 VL
modifications: pyroglutamic acid residue at the amino-terminus
notes: also called the Fab
On to B2, for which, in assay [6], the binding result was “binds”.
